Experimental data published in patent publication US20250115669A1, “FGFR1/KLB Targeting Agonistic Antigen-Binding Proteins and Conjugates Thereof with GLP-1R Agonistic Peptides” (SANOFI, priority 2020, published 2025).
Changes are numbered by the printed parent chain. Names and notes keep the numbering of the source.

T1: human beta-Klotho (Homo sapiens, UniProt Q86Z14)
T1 sequence (Q86Z14 1-1044): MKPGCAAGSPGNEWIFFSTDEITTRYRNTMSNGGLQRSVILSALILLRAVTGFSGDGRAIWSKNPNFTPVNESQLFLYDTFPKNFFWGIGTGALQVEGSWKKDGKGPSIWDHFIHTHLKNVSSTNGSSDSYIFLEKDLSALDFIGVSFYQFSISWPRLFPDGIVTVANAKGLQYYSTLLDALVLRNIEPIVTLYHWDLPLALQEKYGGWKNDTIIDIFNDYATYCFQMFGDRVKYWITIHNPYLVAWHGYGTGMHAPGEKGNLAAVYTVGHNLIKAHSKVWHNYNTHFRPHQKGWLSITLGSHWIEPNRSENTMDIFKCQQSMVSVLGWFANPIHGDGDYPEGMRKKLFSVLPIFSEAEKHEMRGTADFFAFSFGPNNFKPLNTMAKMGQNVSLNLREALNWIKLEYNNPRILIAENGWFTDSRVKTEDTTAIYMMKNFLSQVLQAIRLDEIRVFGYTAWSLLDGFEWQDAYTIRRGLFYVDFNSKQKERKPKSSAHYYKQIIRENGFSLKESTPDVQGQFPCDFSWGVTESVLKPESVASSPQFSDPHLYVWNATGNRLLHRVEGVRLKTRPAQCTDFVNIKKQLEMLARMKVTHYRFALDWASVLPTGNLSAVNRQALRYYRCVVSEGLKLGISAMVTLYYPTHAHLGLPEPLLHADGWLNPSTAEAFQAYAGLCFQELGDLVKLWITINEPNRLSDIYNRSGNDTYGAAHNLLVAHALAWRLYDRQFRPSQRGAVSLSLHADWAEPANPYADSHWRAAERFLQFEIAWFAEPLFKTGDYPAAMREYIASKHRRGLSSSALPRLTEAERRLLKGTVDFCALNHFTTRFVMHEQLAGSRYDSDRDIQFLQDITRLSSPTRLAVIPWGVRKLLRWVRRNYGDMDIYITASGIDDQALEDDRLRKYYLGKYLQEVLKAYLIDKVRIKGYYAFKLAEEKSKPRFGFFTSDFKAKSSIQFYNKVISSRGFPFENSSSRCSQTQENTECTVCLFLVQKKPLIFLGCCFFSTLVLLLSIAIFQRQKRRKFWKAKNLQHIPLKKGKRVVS

B1: Ab0314: IgG4 PE; 16H7 VL (N25S, D91T, N93E); 16H7 VH (M34V, I83T, D109E) (antibody)
VH: QVTLKESGPVLVKPTETLTLTCTVSGFSLNNARVGVSWIRQPPGKALEWLAHIFSNDEKSYSTSLKSRLTISKDTSKSQVVLTMTNMDPVDTATYYCARSVVTGGYYYEGMDVWGQGTTVTVSS
light: SYVLTQPPSVSVAPGQTARITCGGSNIGSESVHWYQQKPGQAPVLVVYDDSDRPSGIPERFSGSNSGNTATLTISRVEAGDEADYYCQVWTGESDHVVFGGGTKLTVLGQPKANPTVTLFPPSSEELQANKATLVCLISDFYPGAVTVAWKADGSPVKAGVETTKPSKQSNNKYAASSYLSLTPEQWKSHRSYSCQVTHEGSTVEKTVAPTECS
B2: Ab0301: IgG4 PE; 16H7 VL (N25S, D49Y, D91T); 16H7 VH (M34V, I83T, D109E) (antibody)
VH: B1 VH
light: B1 light with D49Y, E93N
B3: Ab0303: IgG4 PE; 16H7 VL (N25S, D50E, D91T); 16H7 VH (M34V, I83T, D109E) (antibody)
VH: B1 VH
light: B1 light with D50E, E93N
B4: Ab0311: IgG4 PE; 16H7 VL (D49Y, D50E, N93E); 16H7 VH (M34V, I83T, D109E) (antibody)
VH: B1 VH
light: B1 light with S25N, D49Y, D50E, T91D
B5: Ab0317: IgG4 PE; 16H7 VL (D50E, D91T, N93E); 16H7 VH (M34V, I83T, D109E) (antibody)
VH: B1 VH
light: B1 light with S25N, D50E
B6: Ab0310: IgG4 PE; 16H7 VL (N25S, D50E, N93E); 16H7 VH (M34V, I83T, D109E) (antibody)
VH: B1 VH
light: B1 light with D50E, T91D
B7: Ab0315: IgG4 PE; 16H7 VL (D49Y, D91T, N93E); 16H7 VH (M34V, I83T, D109E) (antibody)
VH: B1 VH
light: B1 light with S25N, D49Y
B8: Ab0375: IgG4 PE; 16H7 VL (Y48del, D95E, W90F, S1C, S94C); 16H7 VH (M34V, F54W, I83T, D109E) (antibody)
VH: B1 VH with F54W
light: CYVLTQPPSVSVAPGQTARITCGGNNIGSESVHWYQQKPGQAPVLVVDDSDRPSGIPERFSGSNSGNTATLTISRVEAGDEADYYCQVFDGNCEHVVFGGGTKLTVLGQPKANPTVTLFPPSSEELQANKATLVCLISDFYPGAVTVAWKADGSPVKAGVETTKPSKQSNNKYAASSYLSLTPEQWKSHRSYSCQVTHEGSTVEKTVAPTECS
B9: Ab0318: IgG4 PE; 16H7 VL (N25S, D50E, D91T, N93E); 16H7 VH (M34V, I83T, D109E) (antibody)
VH: B1 VH
light: B1 light with D50E
B10: Ab0316: IgG4 PE; 16H7 VL (N25S, D49Y, D91T, N93E); 16H7 VH (M34V, I83T, D109E) (antibody)
VH: B1 VH
light: B1 light with D49Y
B11: Ab0364: IgG4 PE; 16H7 VL (N25A, D49E, D50E, D91E, N93S); 16H7 VH (M34V, I83T, D109E) (antibody)
VH: B1 VH
light: B1 light with S25A, D49E, D50E, T91E, E93S
B12: Ab0365: IgG4 PE; 16H7 VL (N25A, D49T, D50E, D91A, N93S); 16H7 VH (M34V, I83T, D109E) (antibody)
VH: B1 VH
light: B1 light with S25A, D49T, D50E, T91A, E93S
B13: Ab0305: IgG4 PE; 16H7 VL (N25S, D49Y, D50E, D91T); 16H7 VH (M34V, I83T, D109E) (antibody)
VH: B1 VH
light: B1 light with D49Y, D50E, E93N
B14: Ab0308: IgG4 PE; 16H7 VL (N25S, D49Y, N93E); 16H7 VH (M34V, I83T, D109E) (antibody)
VH: B1 VH
light: B1 light with D49Y, T91D
B15: Ab0304: IgG4 PE; 16H7 VL (D49Y, D50E, D91T); 16H7 VH (M34V, I83T, D109E) (antibody)
VH: B1 VH
light: B1 light with S25N, D49Y, D50E, E93N
B16: Ab0370: IgG4 PE; 16H7 VL (Y48del, W90H); 16H7 VH (M34V, H52W, I83T, D109E) (antibody)
VH: B1 VH with H52W
light: B8 light with C1S, F89H, C93S, E94D

molecular target: T1, human beta-Klotho; assay: SPR off-rate screening of antibody mutants (human beta-Klotho captured by anti-His antibody); type: binding; details: mean, n=3
In short: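 First, anti-His antibody is immobilized on a CM5 chip by amine coupling and used to capture beta-Klotho. Next, each antibody mutant is injected at 50 nmol/L for 240 sec, then dissociation is followed for 300 sec. Finally, kd is fitted with a single exponential.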

Row | koff human KLB | Molecule
1 | 0.000402 s⁻¹ | B1
2 | invalid fit | B2
3 | invalid fit | B3
4 | 0.0013 s⁻¹ | B4
5 | invalid fit | B5
6 | 0.00116 s⁻¹ | B6
7 | invalid fit | B7
8 | no binding | B8
9 | invalid fit | B9
10 | invalid fit | B10
11 | 0.00169 s⁻¹ | B11
12 | invalid fit | B12
13 | invalid fit | B13
14 | 0.0013 s⁻¹ | B14
15 | invalid fit | B15

molecular target: T2, FGFR1c and co-receptor beta-Klotho (KLB) (Homo sapiens, UniProt P11362+Q86Z14); assay: Luciferase reporter gene assay (iLite FGF21 Assay Ready Cells), FGF21-like signaling; type: cell-based; details: Luciferase gene reporter assay, mean, n=3-7
T2 construct: host or cells: iLite FGF21 Assay Ready Cells (HEK293)
T2 sequence (P11362 22-820 isoform P11362-2 limits assumed, one chain of several): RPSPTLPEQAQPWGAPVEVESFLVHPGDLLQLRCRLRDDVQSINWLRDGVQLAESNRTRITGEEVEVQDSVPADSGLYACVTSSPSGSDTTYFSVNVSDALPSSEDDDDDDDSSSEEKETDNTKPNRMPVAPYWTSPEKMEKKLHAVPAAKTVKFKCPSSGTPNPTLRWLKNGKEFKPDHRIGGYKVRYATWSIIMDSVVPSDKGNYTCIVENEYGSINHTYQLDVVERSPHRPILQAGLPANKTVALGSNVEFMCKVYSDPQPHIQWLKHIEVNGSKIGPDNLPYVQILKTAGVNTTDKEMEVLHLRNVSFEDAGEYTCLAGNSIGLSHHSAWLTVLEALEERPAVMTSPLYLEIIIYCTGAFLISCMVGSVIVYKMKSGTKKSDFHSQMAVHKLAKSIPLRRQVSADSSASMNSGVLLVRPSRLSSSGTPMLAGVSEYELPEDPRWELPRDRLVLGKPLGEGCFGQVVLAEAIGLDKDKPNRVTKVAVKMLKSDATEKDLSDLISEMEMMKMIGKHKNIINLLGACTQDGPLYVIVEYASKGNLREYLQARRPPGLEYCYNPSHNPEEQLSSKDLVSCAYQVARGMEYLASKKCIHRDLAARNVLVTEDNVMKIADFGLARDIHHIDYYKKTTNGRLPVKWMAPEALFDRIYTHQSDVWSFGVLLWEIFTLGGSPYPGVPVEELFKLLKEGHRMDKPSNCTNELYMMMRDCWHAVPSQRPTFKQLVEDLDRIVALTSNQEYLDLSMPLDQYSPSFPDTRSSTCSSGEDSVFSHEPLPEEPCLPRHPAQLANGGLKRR

Row | HEK293 hFGFR1c + KLB (iLite) Emax [%] | Molecule
16 | 490.05 | B16

system: not listed separately; assay: In vivo PK in transgenic humanized FcRn mice (Tg32); details: 0.3 mg/kg single IV, plasma, noncompartmental analysis
Procedure: In vivo PK studies were conducted in transgenic humanized FcRn mice (Tg32). For these studies, no GLP compliance was claimed.

Row | Molecule | t½ [days]
17 | B1 | 18
